First the molecules themselves.
B1: rbd.049 (antibody, V domains shown)
VH: QLQLQESGPGLVKPSETLSLSCTVSGGSISSKSDYWGWIRQSPGKGLEWIGSIYYTGTTYYNPSLKSRVSISLDKSKNQFSLKLNSLTAADTALYYCARDPSIAVATTVYFDAWGQGTLVTVSS
VL: EIVLTQSPGTLSLSPGERATLSCRASESVKSNYLAWYQQKLGQPPRLLIFGASTRATGIPDRFSGSGSGTDFTLTISRLEPEDFAVYYCQQYHTSPPRYTFGQGTKLEIK
B2: rbd.142 (antibody, V domains shown)
VH: EVQLVESGGGVVQPGRSLRLSCVASGLTFSRYGMHWVRQAPGKGLEWVAVTTYDGSNKDYADSVKGRFTISRDNSKNTLYLQMNSLRAEDTAVYYCAKVGGGEYCSGGSCYGSYGMDVWGQGTTVTVSS
VL: not shown
B3: rbd.112 (antibody, V domains shown)
VH: EVQLVQSGAEVKKSGESLKISCKSSGYSFTTYWIAWVRQMPGKGLEWMGIIYPGHSDARYSPSFQGHVTISADKSISTAYLQWRSLKASDTAIYYCARLSYYDVSNFYYYDSYWFDSWGLGTLVTVSS
VL: QSVLTQPPSVSGAPGQRVTISCTGSSSNLGAGYDVHWYQQLPGTAPKLLIYANSNRPSGVPDRFSGSKSGTSASLAMTGLQAEDEADYYCQSYDSSLGGYVFGFGTKVTVL
B4: rbd.143 (antibody, V domains shown)
VH: EVQLVESGGGLVQPGGSLRLSCSASGFTFRRYAMHWVRQAPGKGLQHVSAISSDGDNTHYADSVKGRFTISRDNFKNTLHLQMSSLRPEDTAVYYCVKDPFSNFHYFDCWGQGILVTVSS
VL: not shown
B5: sd1.108 (antibody, V domains shown)
VH: QVQLVQSGAEVKKPGASVKVSCKASGYTFTSYYIHWVRQTPGQGLEWMGIINPRGGSTSYPQKFQGRVSMTRDTSTSTVFMELSSLRSDDTAVYYCAREHREDTAMDNQPSDSWGQGTLVTVSS
VL: DIVMTQSPDSLSVSLGERATINCKSSRSVFYSSNNKSYLAWYQQKPGQPPKLLIYWASTRESGVRDRFSGSGSGTDFTLTISSLQAEDVAVYYCQQYYNTPYTFGQGTKLEIK
B6: rbd.113 (antibody, V domains shown)
VH: EVQLVQSGAAVKKPGESLKISCKGSGYSFTNYWIGWVRQMPGKGLELMGIIYVGDSDTRYSPSFQGQVTISADKSITTAYLQWSSLKASDSAIYYCARQRCGGDCPFDLWGRGTLVTVSS
VL: DIQMTQSPSTLSASVGDRVTITCRASQSINRWLAWYQQKPGKAPELLIYDASDLESGVPSRFSGSGSGTEFTLTISSLQPDDFATYYCQQYNSYWTFGQGTKVEIK
B7: rbd.117 (antibody, V domains shown)
VH: EVQLVESGGGLVQPGGSLRLSCAASGFTFSRYAMSWVRQAPGKGLEWVSGLSGSGDSTYYADSVKGRFTISRDNSKKTLNLQMNSLRPEDTAVYYCAKGSRFGIDYFDCWGQGTLVTVSS
VL: DIQMTQSPSTLSASVGDRVTITCRASQSISSWLAWYQLKPGKAPKLLIYDASSLESGVPSRFSGSGSGTEFTLTISSLQPDDFATYYCQQYNTYPFSFGPGTKVDIK
B8: rbd.123 (antibody, V domains shown)
VH: QVQLVQSGAEVKKPGSSVKVSCKASGGAFRMYAISWVRQAPGQGLEWMGGIIPISGTATYTQNFQGRVTITVDRSTSTAYMELSSLRSDDTALYYCARGPRTGYDYFDFWGQGTLVTVSS
VL: DIQMTQSPSTLSASVGDRVTITCRASQSISSWLAWYQQKPGKAPNLLIYDASSLESGVPSRFSGSGSGTEFTLTISSLQPDDFATYYCQQYKSYPYTFGQGTKLEIK
B9: rbd.106 (antibody, V domains shown)
VH: EVQLVQSGAEVKKPGESLKISCKGSGYSFYNHWIAWVRQMPGKGLEWMGIIYPYDSDTRYSPSFQGQVTISADKSITTAYLQWSSLKASDTAIYYCARRSDYGEFGGHSDYWGQGTLVTVSS
VL: not shown
B10: sd1.040 (antibody, V domains shown)
VH: QVQLVQSGAEVKKPGASVKVSCKASGYTFTSFYIHWVRQAPGQGLEWMGIIDPSGGSTSYPQKFQGRVTMTRDTSTSTVYMDLSSLRSEDTAVYYCTRDGSAGDNSWFDPWGQGTLVTVSS
VL: not shown
B11: sd1.034 (antibody, V domains shown)
VH: EVQLVESGGGVVQPGRSLRLSCAASGFSFSNYGMHWVRQAPGKGLEWVAVISYDGSHKSFADSVKGRFTISRDNSKNTLNLQMNSLRREDTAVYYCATDQGGSLGYWGQGTLVTVSS
VL: QSALTQPASVSGSPGQSITISCTGTSGDVGGYNYVSWYQHHPGKAPKLMIYDVSNRPSGVSNRFSGSKSGNTASLTISGLQAEDEADYYCSSYTSTSTSWVFGGGTKLTVL
B12: rbd.110 (antibody, V domains shown)
VH: EVQLVESGGGVVQPGRSLRLSCVASGFTFSRYGMHWVRQAPGKGLEWVATILYDGSDQYYAESVKGRFTISRDNSKNTLYLQMNSLREADTAVYYCAKTSYGYAYNFRLYFDYWGQGTLVTVSS
VL: SYELTQPPSVSVAPGKTATITCGGNNIGSAGVHWYQQRPGQAPVLVVYDDSDRPSGIPERFSGSTSGNTATLTISRVEAGDEADYYCQVWDSNSAPVIFGGGTKLTVL
B13: rbd.141 (antibody, V domains shown)
VH: EVQLVESGGGVVQPGRSLRLSCAASGFTFSSYGMHWVRQAPGKGLEWVAVISYDGKIKYYADSVEGRFTISRDNSKNALYLQMNSLRAEDTAVYYCAKYGIVTSFGVVPPYDMDVWGQGTTVTVSS
VL: DVVMTQSPLSLPVTLGQPASISCRSSQSLVYSDGNTFLNWFQQRPGQSPRRLIYKVSDRDSGVPDRFSGSGSGTDFTLKISRVEAEDVGVYYCMQGTNWPPTFGQGTKVEIK
B14: fp.007 (antibody, V domains shown)
VH: EVQLVESGGGLVKPGGSLRLSCAGTGFIFSDAWMTWVRQAPGKGLEWVGRIKSKADGGTTDYAAPVKGRFTISRDDSKNTLYLEINSLKTEDTAVYYCTTGRSRYCIGAVCYYFDHWGQGTLVTVSS
VL: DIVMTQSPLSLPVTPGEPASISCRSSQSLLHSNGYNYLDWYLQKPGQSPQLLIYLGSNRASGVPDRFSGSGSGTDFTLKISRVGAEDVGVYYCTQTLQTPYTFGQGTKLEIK
B15: hr2.019 (antibody, V domains shown)
VH: EVQLVESGGGLVKPGGSLRLSCAASGSSVIDVWMNWVRQAPGKGLEWVGRIKTKASGAATDYGAPVKGRFTISRDDSKNLSYLQMNSLRAEDTGIYYCTTSPLPNFDYWGRGTLVTVSS
VL: DIVMTQSPDFLAVSLGETATINCRSSQSVFYFANNKNYLAWYQQKPGQPPKLLIYWASKRESGVPDRFSGSGSGTDFTLTISSLQAEDVATYYCQQYSSPAITFGPGTKVDIK
B16: hr2.090 (antibody, V domains shown)
VH: EVQLLESGGGLVQPGGSLRLSCAASGVTFSRYAMSWVRQAPGKGLEWVSTISGGGGGTYYADSVKGRFTISRDNSKNTLYLQMNSLRAEDTAVYYCATLLTVPGPYYFEYWGQGTLVTVSS
VL: EIVLTQSPGTLSLSPGERATLSCRASQSVSSSYLAWYQQKPGQAPRLLIYGASSRATGIPDRFSGSGSGTDFTLTISRLESEDFAVYYCQHSRFTFGPGTRVDIK

The target in one test is SARS-CoV-2 S of the Ancestral pseudovirus (pSARS-COV2-Strunc) (SARS-CoV-2 (ancestral), UniProt P0DTC2 14-1254). Put plainly: cell-based or functional assay.
On to B1, for which the “Ancestral Pseudovirus IC50” value was found to be 3.71 µg/mL. As to B2, the “Ancestral Pseudovirus IC50” value was 5.09 µg/mL. B3: the “Ancestral Pseudovirus IC50” value came to 0.0867 µg/mL.

With B4, the “Ancestral Pseudovirus IC50” value stood at 0.28 µg/mL. Turning to B5, the “Ancestral Pseudovirus IC50” value stood at 0.446 µg/mL.

On to B6, for which the “Ancestral Pseudovirus IC50” value came to 0.373 µg/mL. For B7, the “Ancestral Pseudovirus IC50” value stood at 0.203 µg/mL. B8: the “Ancestral Pseudovirus IC50” value was 1.21 µg/mL. As for B9, the “Ancestral Pseudovirus IC50” value was 0.0674 µg/mL. Consider B10, for which the “Ancestral Pseudovirus IC50” value was determined as 0.245 µg/mL. In the case of B11, the “Ancestral Pseudovirus IC50” value worked out at 0.387 µg/mL.

For the molecule B12, the “Ancestral Pseudovirus IC50” value was 4.25 µg/mL.

With B13, the “Ancestral Pseudovirus IC50” value amounted to 0.164 µg/mL.

The target of another test is C-terminally truncated SARS-CoV-2 S protein (pSARS-CoV2-Strunc), ancestral (SARS-CoV-2, UniProt P0DTC2 14-1273). Put plainly: cell-based or functional assay.
B14: the “Ancestral Pseudovirus IC50” value came out at 11.1 µg/mL and the “Ancestral Pseudovirus IC50 (on cells with [not given])” value was 3.98 µg/mL.

For B15, the “Ancestral Pseudovirus IC50” value came out at 1.22 µg/mL. With B16, the “Ancestral Pseudovirus IC50” value turned out to be 1.02 µg/mL.
